The subject of the data set is Escherichia coli TOP10. The data set can be described thus: shrunken log2 fold change of peptide-encoding DNA abundance (4.5 h post-induction vs induction); higher = less antimicrobial activity (less host growth inhibition). Conditions: time post-induction: 4.5 h; library: site-saturation at positions 5, 18, 19, 20.
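Note: peptides expressed intracellularly from a pBAD plasmid library in pooled LB shake-flask culture, induced with 0.3% L-arabinose, DNA abundance read by NGS, three biological replicates, DESeq2 with apeglm shrinkage.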

Turning to RRIRARPPRLPRPRPRPLFLPRP, the “shrunken log2 fold change” value was 0.0297. With RRIRPRPPRLPRPRPRPVNDPRP the figure was -0.106; with RRIRRRPPRLPRPRPRPSIGPRP, -0.0466. With RRIRDRPPRLPRPRPRPNVDPRP the figure was 0.0276; with RRIRQRPPRLPRPRPRPGDSPRP, -0.0573. The result for RRIRHRPPRLPRPRPRPPKIPRP reads 0.282. As to RRIRPRPPRLPRPRPRPQECPRP, the “shrunken log2 fold change” value came to 0.0456.

As for RRIRRRPPRLPRPRPRPGWHPRP, the “shrunken log2 fold change” value worked out at 0.176. The result for RRIRVRPPRLPRPRPRPVGYPRP reads -0.0725.

For the sequence RRIRNRPPRLPRPRPRPIGKPRP, the “shrunken log2 fold change” value is -0.0902. The result for RRIRGRPPRLPRPRPRPTWQPRP reads 0.731; that for RRIRYRPPRLPRPRPRPTDRPRP, -0.144. The result for RRIRMRPPRLPRPRPRPKMNPRP reads 0.501; that for RRIRKRPPRLPRPRPRPKYDPRP, 0.38; that for RRIRLRPPRLPRPRPRPCIRPRP, -0.265.

Consider RRIRPRPPRLPRPRPRPNVIPRP, for which the “shrunken log2 fold change” value is -0.451. With RRIRVRPPRLPRPRPRPWPVPRP the figure was 0.197; with RRIRERPPRLPRPRPRPTFWPRP, -0.0352; with RRIRERPPRLPRPRPRPIYLPRP, -0.649. The result for RRIRERPPRLPRPRPRPWWRPRP reads 0.098; that for RRIRERPPRLPRPRPRPGGSPRP, 0.154; that for RRIRYRPPRLPRPRPRPYPLPRP, -0.146. The result for RRIRLRPPRLPRPRPRPPTCPRP reads 0.192. On to RRIRNRPPRLPRPRPRPGMEPRP, for which the “shrunken log2 fold change” value is -0.0302. The result for RRIRDRPPRLPRPRPRPMIDPRP reads 0.141; that for RRIRMRPPRLPRPRPRPVHHPRP, 0.00757. The result for RRIRVRPPRLPRPRPRPCKVPRP reads 0.00272; that for RRIRSRPPRLPRPRPRPHRLPRP, -0.288. As to RRIRSRPPRLPRPRPRPFYPPRP, the “shrunken log2 fold change” value is -0.259. The result for RRIRGRPPRLPRPRPRPNMDPRP reads 0.265; that for RRIRWRPPRLPRPRPRPSTWPRP, -0.148; that for RRIRERPPRLPRPRPRPDHCPRP, -0.0389. With RRIRLRPPRLPRPRPRPWLCPRP the figure was -0.0198. With RRIRSRPPRLPRPRPRPMERPRP the figure was -0.0898.

For the sequence RRIRRRPPRLPRPRPRPAEYPRP, the “shrunken log2 fold change” value is 0.0756. The result for RRIRFRPPRLPRPRPRPMCKPRP reads -0.169.

In the case of RRIRHRPPRLPRPRPRPHFCPRP, the “shrunken log2 fold change” value is -0.0593. In the case of RRIRCRPPRLPRPRPRPEHSPRP, the “shrunken log2 fold change” value was found to be 0.0871. With RRIRTRPPRLPRPRPRPTGMPRP the figure was 0.13; with RRIRMRPPRLPRPRPRPVTIPRP, -0.0206; with RRIRERPPRLPRPRPRPSGSPRP, 0.0459. With RRIRDRPPRLPRPRPRPFYRPRP the figure was 0.03. With RRIRRRPPRLPRPRPRPPREPRP the figure was 1.11; with RRIRGRPPRLPRPRPRPGYYPRP, -0.301; with RRIRIRPPRLPRPRPRPMAVPRP, 0.142. On to RRIRARPPRLPRPRPRPNVWPRP, for which the “shrunken log2 fold change” value was 0.537. With RRIRPRPPRLPRPRPRPCAIPRP the figure was -1.01; with RRIRRRPPRLPRPRPRPGPQPRP, 0.337; with RRIRIRPPRLPRPRPRPNMHPRP, -0.805. With RRIRGRPPRLPRPRPRPYFFPRP the figure was 0.0463.

The values are drawn from the supplement of paper PMC9112550, “Optimization of the antimicrobial peptide Bac7 by deep mutational scanning” (BMC Biology, 2022).
